From patent EP0830146B1

Legend:
[1] = target: human CD3 on Jurkat cells (human) (UniProt P07766); assay: competition with 125I-UCHT1 tracer on Jurkat cells; competitor at 1 nM
[2] = target: human CD3 on Jurkat cells (human) (UniProt P07766); assay: competition with 125I-UCHT1 tracer on Jurkat cells; competitor at 100 nM
[3] = target: human CD3 on Jurkat cells (human) (UniProt P07766); assay: cell-based or functional assay

% of 125I-UCHT1 bound [1] [%]	% of 125I-UCHT1 bound [2] [%]	Substance	difference in IC50 against UCHT1-CRM9, protein synthesis inhibition [3] [fold]	protein synthesis (% of controls), no serum, 1 x 10^-10 M on Jurkat cells (% of controls) [3]
80	0	UCHT1 (antibody)	–	–
–	–	sFv-DT390 (from UniProt P00588 1-390)	16	18
80	0	scUCHT1 (from UniProt P01871 106-453)	–	–
